Molecular target: angiotensin-converting enzyme 2 (ACE2) (human) (UniProt Q9BYF1)
Assay: other fluorescence titration

Chain of UniProt Q9BYF1 (Q9BYF1 18-805): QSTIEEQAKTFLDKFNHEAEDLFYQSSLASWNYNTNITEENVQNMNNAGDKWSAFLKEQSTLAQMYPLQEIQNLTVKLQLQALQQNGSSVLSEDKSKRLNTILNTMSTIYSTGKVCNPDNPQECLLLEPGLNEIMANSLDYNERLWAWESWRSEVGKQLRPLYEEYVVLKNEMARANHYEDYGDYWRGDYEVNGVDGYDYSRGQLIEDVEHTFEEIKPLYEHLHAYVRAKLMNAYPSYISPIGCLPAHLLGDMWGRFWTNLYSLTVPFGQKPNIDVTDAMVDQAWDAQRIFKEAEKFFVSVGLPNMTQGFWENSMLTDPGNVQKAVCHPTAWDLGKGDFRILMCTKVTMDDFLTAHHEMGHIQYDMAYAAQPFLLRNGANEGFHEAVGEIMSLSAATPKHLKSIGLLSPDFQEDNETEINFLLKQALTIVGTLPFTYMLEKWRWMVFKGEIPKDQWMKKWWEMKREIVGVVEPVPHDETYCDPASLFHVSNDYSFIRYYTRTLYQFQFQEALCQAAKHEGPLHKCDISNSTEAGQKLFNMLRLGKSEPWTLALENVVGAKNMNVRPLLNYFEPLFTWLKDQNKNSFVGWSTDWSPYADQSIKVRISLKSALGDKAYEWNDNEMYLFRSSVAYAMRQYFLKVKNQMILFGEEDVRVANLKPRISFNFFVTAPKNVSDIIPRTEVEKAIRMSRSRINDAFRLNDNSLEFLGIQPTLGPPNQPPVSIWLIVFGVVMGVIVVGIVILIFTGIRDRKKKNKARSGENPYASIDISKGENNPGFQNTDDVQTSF

SARS-CoV-1 spike receptor-binding domain (S RBD) (domain or fragment)
ΔF/F0 of the 1130 nm SWCNT emission peak after 90 min, 10 mg/L: 88.4%

Reference: publication doi:10.1101/2020.11.02.20223404
